B1: Hairpin Ribozyme (parent)
chain: GUCCUCUUUCACGUGCGCGUGAAAGAGAGAAGUGAACCAGAGAAACACACGUUGUGGUAUAUUACCUGGUA

Variants of: B1
Experiment: self-cleavage, relative activity (ratio to wild type); higher = more cleavage; co-transcriptional

For GUCCUCUUUCACGUGCGCGUGAAAGAGAGAAGUGAAUCAGAGAAACACACGUUGUGGUAUAUCACCUGGUA [C37U U63C], which self-cleavage is on record?
Its self-cleavage is 0.0912.

For GUCCUCUUUCACGUGCGCGUGAAAGAGAGAAGUAAACCAGAGAAACCCACGUUGUGGUAUAUUACCUGGUA [G34A A47C], which self-cleavage is on record?
The self-cleavage was 0.451.

With GUCCUCUUUCACGUGCGCGUGAAAGAGAGAACUGAAGCAGAGAAACACACGUUGUGGUAUAUUACCUGGUA [G32C C37G] as the variant, how does the self-cleavage read?
Its self-cleavage is 0.15.

With GUCCUCUCUCACGUGCGCGUGAAAGAGAGAAGUGAACCAGAGAAACACACGUUGUGGGAUAUUACCUGGUA [U8C U58G] as the variant, how does the self-cleavage read?
Its self-cleavage is 0.327.

With GUCCUCUUUCCCGUGCGCGUGAAAGAGAGAAGUGAACCAGAGCAACACACGUUGUGGUAUAUUACCUGGUA [A11C A43C] as the variant, how does the self-cleavage read?
The self-cleavage was 0.

Which self-cleavage does the source give for GUCCUCUUUCUCGUGCGCGUGAAAGAGAGAAGUGAACCAGAGAAACACACGUUGUGGUAUAUUACCUGAUA [A11U G69A] here?
The self-cleavage was 0.402.

With GUCCCCUUUCACGUGCGCGUGAAAGAGAGAAGUGAACCAGAGAAACACACGUUGUGGUAUCUUACCUGGUA [U5C A61C] as the variant, how does the self-cleavage read?
Its self-cleavage is 0.128.

Which self-cleavage does the source give for GUCCUGUUUCACGUGCGCGUGAAAGAGAGAAGUGAACCAGAGAAACACACGUUGUGGUAUAUUACCUGGAA [C6G U70A] here?
The self-cleavage was 0.399.

For GUCCUCUUUCACGUGCGCGUGAAAGAGAGAAGUGAACCAGAGAAACACACGUUGGGGUAUGUUACCUGGUA [U55G A61G], which self-cleavage is on record?
The self-cleavage was 0.0963.

Which self-cleavage does the source give for GUCCUCUUUCACGUGCGCGUGCAAGAGAGAAGUGAACCAGAGAAACACACGUAGUGGUAUAUUACCUGGUA [A22C U53A] here?
Its self-cleavage is 0.81.

With CUCCUCUUUCACGUGCGCGUGAAAGAGAGAAGUGAACCAGAGAAACACUCGUUGUGGUAUAUUACCUGGUA [G1C A49U] as the variant, how does the self-cleavage read?
The self-cleavage was 0.252.

With GUCCUCUUUCACGUGCGCGUGAAAGAGAGAAGCGAACCAGAGAAACACACGUCGUGGUAUAUUACCUGGUA [U33C U53C] as the variant, how does the self-cleavage read?
The self-cleavage was 0.154.

Which self-cleavage does the source give for GUCCUCUUUCACGUUCGCGUGAAAGAGAGAAGUGAACCAGAGAAACACUCGUUGUGGUAUAUUACCUGGUA [G15U A49U] here?
The self-cleavage was 0.0651.

For GUCCUCUUUCACGCGCGCGUGAAAGAGAGAAGUGAACCAGAGAAACACACGCUGUGGUAUAUUACCUGGUA [U14C U52C], which self-cleavage is on record?
Its self-cleavage is 0.938.

With GUCCUCUUUCCCGUGCGCGUGAAAGAGAGAAGUGAACCAGAGAAACACACGUUGUGGUAUAUUACCUGGUG [A11C A71G] as the variant, how does the self-cleavage read?
The self-cleavage was 0.902.

With GUCCUCUUUCACGUGCGCGUGAAAGAGAGAAGUGAACGAGAGAAACACACGUUGUGGUAUAUUACUUGGUA [C38G C66U] as the variant, how does the self-cleavage read?
Its self-cleavage is 0.21.

For GUCCUCUUGCACGUGCGCGUGAAAGAGAGAAGUGAACCAGAGUAACACACGUUGUGGUAUAUUACCUGGUA [U9G A43U], which self-cleavage is on record?
The self-cleavage was 0.111.

With GUCCGCUUUCACGUGCGCGUGAAAGAGAGAAGUGAACCAGAGAAACACACGGUGUGGUAUAUUACCUGGUA [U5G U52G] as the variant, how does the self-cleavage read?
The self-cleavage was 0.255.

With GUCCUCUUUCACGUGCGCGUCAAAGAGAGAAGUGAACCAGAGAAACACACGUUGUGGUAUAUCACCUGGUA [G21C U63C] as the variant, how does the self-cleavage read?
The self-cleavage was 0.196.

Which self-cleavage does the source give for GUCCUCUUUCACGUGCGCGUGAAAGAGAGAAGUGAACCAGAGAAACACACCUUGUAGUAUAUUACCUGGUA [G51C G56A] here?
Its self-cleavage is 0.197.

Which self-cleavage does the source give for UUCCUCUUUCACGUGCGCGUGAAAGAGAGAAGUGAACCAGAGAAACCCACGUUGUGGUAUAUUACCUGGUA [G1U A47C] here?
The self-cleavage was 0.107.

Which self-cleavage does the source give for GUCCUCUUUCACGUGCGCGUGACAGAGAGAAGUGAACCAGAGAAACAAACGUUGUGGUAUAUUACCUGGUA [A23C C48A] here?
Its self-cleavage is 0.0725.

With GUCCUCUUUCACGUGCGCGUGAAAGAGAGAAGUGAACCAGAGAAACACUCGUUGUGGUAUAUUACCUUGUA [A49U G68U] as the variant, how does the self-cleavage read?
Its self-cleavage is 0.128.

With GUCCUGUUUCACGUGCGCGUGAAAGAGAGAAGUGAACCAGAGAAAUACACGUUGUGGUAUAUUACCUGGUA [C6G C46U] as the variant, how does the self-cleavage read?
The self-cleavage was 0.143.

With GUCCUCUGUCACGUGCGCGUGAAAGAGAGAAGUGAACCAGAGAAACACACGUUGUGGUAUAUUACCGGGUA [U8G U67G] as the variant, how does the self-cleavage read?
Its self-cleavage is 0.242.

Which self-cleavage does the source give for GUCCCCUUUCACGUGCGCGUGAAAGAGAGAAGUGAACCAGAGAAACACACGUUAUGGUAUAUUACCUGGUA [U5C G54A] here?
The self-cleavage was 0.467.

For AUCCUCUUUCACGUGCGCGUGAAAGAGAGAAGUGAACCAGAGAAACACACGUAGUGGUAUAUUACCUGGUA [G1A U53A], which self-cleavage is on record?
The self-cleavage was 0.12.

Which self-cleavage does the source give for GUCCUCGUUCACGUGCGCGUGAAAGAGAGAAGUGAACCAGAGAAACACACGUUGUGGUCUAUUACCUGGUA [U7G A59C] here?
Its self-cleavage is 0.0534.

For UUCCGCUUUCACGUGCGCGUGAAAGAGAGAAGUGAACCAGAGAAACACACGUUGUGGUAUAUUACCUGGUA [G1U U5G], which self-cleavage is on record?
The self-cleavage was 0.194.

With GUCCUCUUUCACCUGCGCGUGAAAGAGAGAGGUGAACCAGAGAAACACACGUUGUGGUAUAUUACCUGGUA [G13C A31G] as the variant, how does the self-cleavage read?
Its self-cleavage is 0.515.

For GUCCUCUUUCACGUGCGCGUGAAAGAGAGAAGUGAACCAGAGAAACACACGUUGUGCUAUAUUACCUGCUA [G57C G69C], which self-cleavage is on record?
The self-cleavage was 0.142.

With GUCCUCUUUCACGUGCGCGUGAAAGAGAGAAGUGAACCAGGGAAACACACGUUGUGGUAUAUUACCUUGUA [A41G G68U] as the variant, how does the self-cleavage read?
The self-cleavage was 0.364.

For GUCCGCUUUCACGUGCGCGUGAAAGAGAGAAGUGAACCAGGGAAACACACGUUGUGGUAUAUUACCUGGUA [U5G A41G], which self-cleavage is on record?
The self-cleavage was 0.129.

For GUCCUCUUUCACGUGCUCGUGAAAGAGAGAAGUGAACCAGAGAAACACACCUUGUGGUAUAUUACCUGGUA [G17U G51C], which self-cleavage is on record?
Its self-cleavage is 1.17.

For GUCCUCUUUCACGUGCGAGUGAAAGAGAGAAGUGAACCAGAGAAAAACACGUUGUGGUAUAUUACCUGGUA [C18A C46A], which self-cleavage is on record?
Its self-cleavage is 0.231.

For GUCCUCUUUCACGUGAGCGUGAAAGACAGAAGUGAACCAGAGAAACACACGUUGUGGUAUAUUACCUGGUA [C16A G27C], which self-cleavage is on record?
Its self-cleavage is 0.218.

Which self-cleavage does the source give for GUCCUCUUUCACGUGCGCGUGAAAGAGAGAAGUGAACCAGAGAAACACAGGUUGGGGUAUAUUACCUGGUA [C50G U55G] here?
The self-cleavage was 0.368.

Which self-cleavage does the source give for GUCCUUUUUCACGUGCGCGUGAAAGAGAGAAGUGAACCAGAGAAACACACGUUGUGGUAUAUUAACUGGUA [C6U C65A] here?
The self-cleavage was 0.776.
